In US7217693B2, “Human G protein-coupled receptor expressed in the dorsal root ganglia” (National Research Council of Canada, priority 1997, dated 2007):

The substances below were run against T1, human clone 24 (Homo sapiens, UniProt Q96LB2, E310Q/I312T/I5V) (assay: Calcium signaling (FURA-2) in stably transfected HEK293 cells 293/pcDNA3-HML-HA24). Conditions: stably transfected HEK293 cell line 293/pcDNA3-HML-HA24, FURA-2 AM, peptides added successively.
T1 construct: expressed in transfected cells
T1 sequence (Q96LB2 whole entry I5V/E310Q/I312T): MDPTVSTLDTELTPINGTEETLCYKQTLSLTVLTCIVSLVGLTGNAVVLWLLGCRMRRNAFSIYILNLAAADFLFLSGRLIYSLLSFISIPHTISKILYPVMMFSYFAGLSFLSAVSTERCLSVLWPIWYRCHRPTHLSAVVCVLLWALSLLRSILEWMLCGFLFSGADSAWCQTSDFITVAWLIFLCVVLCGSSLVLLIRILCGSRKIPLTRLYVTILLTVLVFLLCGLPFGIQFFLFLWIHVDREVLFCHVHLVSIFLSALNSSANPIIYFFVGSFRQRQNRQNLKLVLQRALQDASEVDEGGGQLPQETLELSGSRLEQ
Assay type: cell-based
Description: The coding sequence of human clone 24 was transferred into a pcDNA3 vector and modified to add a haemaglutinin tag at the C-terminus of the receptor sequence. This clone, designated as pcDNA3-HML-HA24 was transfected into HEK293 cells using a modified CaCl2 method (Maniatis, Molecular Cloning: A Laboratory Manual, Cold Spring Harbor Laboratory Press (1989)). The cells were maintained in culture medium at 37° C., 5% CO2 and diluted 10 fold every 3 days.
The cells were inoculated in 90 mm tissue culture dishes (5×10^5 cells per flask) in Dulbecco's Modified Essential Medium (DMEM, Gibco BRL), supplemented with 10% fetal bovine serum (FBS), 100 U/ml penicillin, 100 μg/ml streptomycin and 0.25 μg/ml fungizone. One day after inoculation, cells were transiently transfected with 30 μg of plasmid DNA per dish. The cells were harvested 48 hours post transfection for analysis. The expression of the gene was first checked by immunoprecipitation and western blotting with an anti-haemaglutinin antibody. A protein of approximately 43 KD was detected in stably as well as transiently transfected HEK293 cells, but not in control cells.
Stably transfected HEK293 cells were obtained after approximately 21 days of selection in culture medium containing 800 μg/ml G418. Calcium signaling measurement was performed with one of these stably transfected cell line, 293/pcDNA3-HML-HA24. The cells were grown on a 24 mm round glass cover slides to 50–70% confluence. […] The calcium displacement was measured using a PTI (Photon Technology International) D104 photometer equipped with a PTI Delta RAM High speed multiwavelength illuminator, a PTI SC500 Shutter controller, a PTI LPS220 ARC lamp supply and the PTI FELIX software, v.1.2. […] The cells were exposed to 340 and 380 nm light and the 510 nm light emitted by the cells was recorded. […]

Row | Substance | calcium displacement response upon stimulation
1 | Angiotensin I (DRVYIHPFHL) [peptide added to DRR-transfected cells in calcium signaling assay] | no response
2 | angiotensin II (DRVYIHPF) [peptide added to DRR-transfected cells in calcium signaling assay] | a significant response
3 | angiotensin III | a significant response
